Laboratory results as given in patent publication US10400230B2, “Protease variants and polynucleotides encoding same” (NOVOZYMES A/S, priority 2014, dated 2019).
Where “and” joins values, the source holds several entries; their conditions need not be identical. Equal entries are not always repeated.

Assay: Determination of binding constants of inhibitor (NNIC) in Model B detergent, Suc-AAPF-pNA read-out
Type: biochemical
Settings: Ki of variant with the mutation relative to variant without the mutation, <1.0 beneficial
Experimental: Purified protease variants are pre-diluted to approximately 0.2 mg/ml in dilution buffer. 40 μl diluted protease is then mixed with 40 μl inhibitor solution (Z-Gly-Ala-NHCH(CH2C6H4pOH)C(OH)(SO3Na)—H, wherein Z is benzyloxycarbonyl) or 40 μl 4-FPBA solution in the well of a 96 well microtiter plate (Nunc F 96-MTP). […] After 10 min mixing of protease and inhibitor at room temperature, 30 μl of the mixture is transferred to a microtiter plate (Nunc U96 PP 0.5 ml) with 270 μl Model B detergent in the wells resulting in inhibitor concentrations of 0-30 μM and 4-FPBA concentrations of 0-6000 μM. Protease, inhibitor and detergent is mixed for 1 hour using magnetic bars for 1 hour at room temperature to reach equilibrium. Then 20 μl is transferred to a microtiter plate (Nunc F 96-MTP). 100 μl substrate solution is added and after 5 sec mixing absorbance at 405 nm is measured every 20 sec for 5 min on a SpectraMax Plus reader. Slope from linear regression of initial increase in absorbance at 405 nm is used for calculation of apparent binding constants.
It is assumed that protease and inhibitor react according to the equation: E+I ? EI
Where E is the protease, I is the inhibitor and EI is the protease-inhibitor complex. […] The concentration of enzyme-inhibitor in the detergent solution is then given by:
where Etot is the total protease concentration ([Etot]=[E]+[EI]), Itot is the total inhibitor concentration ([Itot]=[I]+[EI]), and Ki is the equilibrium binding constant for the reaction. The measured slopes V are given by:
where V0 is the slope without inhibitor added. To calculate apparent binding constant Ki least square fitting of measured slopes at various inhibitor concentrations to this equation is performed with Ki and V0 as variables.
The Ki for the parent protease and for each variant was calculated as described above
Having the Ki for each variant, it is possible to calculate the effect of a single mutation, if data are available for at least two variants that differ only by that mutation. In this case, the relative Ki for the mutation is calculated:
[formula] A lower Ki is desirable, as a satisfactory inhibition can be obtained at a lower inhibitor concentration, so beneficial mutations have a relative Ki<1.0 The following table show such relative Kimutation. Each row show: • a mutation (column 1: “Mutation”) • a protease variant (relative to SEQ ID NO: 2) that comprise the mutation from column 1 (column 2: “Variant with the mutation”) • another protease variant (relative to SEQ ID NO: 2), that differs from the one in column 2 only by not having the mutation in column 1 (column 3: “Variant without the mutation”) • Relative Kimutation for the mutation in column 1, in the context of the variant in column 3, measured in Model B detergent (column 4: “inhibitor binding in Model B”) • Relative Kimutation for the mutation in column 1, in the context of the variant in column 3, measured in Tris buffer at pH 8 (column 5: “inhibitor binding in Tris buffer pH 8”)
Ki were calculated as shown in Example 3. The Improvement Factor (IF) or Relative

Molecule	Inhibitor-binding relative Kimutation, inhibitor binding in Model B
S27K, I150N, S171N, S173P, G174R, S175P, F180Y, Q198, ET297P: TY145 protease (SEQ ID NO 3) variant with these substitutions (protein, listed as Bacillus sp.) AVPSTQTPWGIKSIYNDQSITKTTGGKGIKVAVLDTGVYTSHLDLAGSAEQCKDFTQSNPLVDGSCTDRQGHGTHVAGTVLAHGGSNGQGVYGVAPQAKLWAYKVLGDNGSGYSDDIAAAIRHVADEASRTGSKVVINMSLGSSAKDSLNASAVDYAYGKGVLIVAAAGNNGPRPNTIGYPGGLVNAVAVAALENVQENGTYRVADFSSRGNPATAGDYIIQERDIEVSAPGASVESTWYTGGYNTISGTSMATPHVAGLAAKIWSANTSLSHSQLRTELQNRAKVYDIKGGIGAGPGDDYASGFGYPRVK	0.24
S27K, K146P, S148R, A151R, S171N, S173P, G174R, S175P, F180Y, Q198E, N199K, T297P: TY145 protease (SEQ ID NO 3) variant with these substitutions (protein, listed as Bacillus sp.) AVPSTQTPWGIKSIYNDQSITKTTGGKGIKVAVLDTGVYTSHLDLAGSAEQCKDFTQSNPLVDGSCTDRQGHGTHVAGTVLAHGGSNGQGVYGVAPQAKLWAYKVLGDNGSGYSDDIAAAIRHVADEASRTGSKVVINMSLGSSAPDRLIRSAVDYAYGKGVLIVAAAGNNGPRPNTIGYPGGLVNAVAVAALENVQEKGTYRVADFSSRGNPATAGDYIIQERDIEVSAPGASVESTWYTGGYNTISGTSMATPHVAGLAAKIWSANTSLSHSQLRTELQNRAKVYDIKGGIGAGPGDDYASGFGYPRVK	0.75
S173P, S175P, N176Y, F180Y: TY145 protease (SEQ ID NO 3) variant with these substitutions (protein, listed as Bacillus sp.) AVPSTQTPWGIKSIYNDQSITKTTGGSGIKVAVLDTGVYTSHLDLAGSAEQCKDFTQSNPLVDGSCTDRQGHGTHVAGTVLAHGGSNGQGVYGVAPQAKLWAYKVLGDNGSGYSDDIAAAIRHVADEASRTGSKVVINMSLGSSAKDSLIASAVDYAYGKGVLIVAAAGNSGPGPYTIGYPGGLVNAVAVAALENVQQNGTYRVADFSSRGNPATAGDYIIQERDIEVSAPGASVESTWYTGGYNTISGTSMATPHVAGLAAKIWSANTSLSHSQLRTELQNRAKVYDIKGGIGAGTGDDYASGFGYPRVK	0.81
S173P, S175P, I178Y, F180Y: TY145 protease (SEQ ID NO 3) variant with these substitutions (protein, listed as Bacillus sp.) AVPSTQTPWGIKSIYNDQSITKTTGGSGIKVAVLDTGVYTSHLDLAGSAEQCKDFTQSNPLVDGSCTDRQGHGTHVAGTVLAHGGSNGQGVYGVAPQAKLWAYKVLGDNGSGYSDDIAAAIRHVADEASRTGSKVVINMSLGSSAKDSLIASAVDYAYGKGVLIVAAAGNSGPGPNTYGYPGGLVNAVAVAALENVQQNGTYRVADFSSRGNPATAGDYIIQERDIEVSAPGASVESTWYTGGYNTISGTSMATPHVAGLAAKIWSANTSLSHSQLRTELQNRAKVYDIKGGIGAGTGDDYASGFGYPRVK	0.53
S173P, S175P, I178F, F180Y: TY145 protease (SEQ ID NO 3) variant with these substitutions (protein, listed as Bacillus sp.) AVPSTQTPWGIKSIYNDQSITKTTGGSGIKVAVLDTGVYTSHLDLAGSAEQCKDFTQSNPLVDGSCTDRQGHGTHVAGTVLAHGGSNGQGVYGVAPQAKLWAYKVLGDNGSGYSDDIAAAIRHVADEASRTGSKVVINMSLGSSAKDSLIASAVDYAYGKGVLIVAAAGNSGPGPNTFGYPGGLVNAVAVAALENVQQNGTYRVADFSSRGNPATAGDYIIQERDIEVSAPGASVESTWYTGGYNTISGTSMATPHVAGLAAKIWSANTSLSHSQLRTELQNRAKVYDIKGGIGAGTGDDYASGFGYPRVK	0.50 and 0.49
S173P, S175P, I178P, F180Y: TY145 protease (SEQ ID NO 3) variant with these substitutions (protein, listed as Bacillus sp.) AVPSTQTPWGIKSIYNDQSITKTTGGSGIKVAVLDTGVYTSHLDLAGSAEQCKDFTQSNPLVDGSCTDRQGHGTHVAGTVLAHGGSNGQGVYGVAPQAKLWAYKVLGDNGSGYSDDIAAAIRHVADEASRTGSKVVINMSLGSSAKDSLIASAVDYAYGKGVLIVAAAGNSGPGPNTPGYPGGLVNAVAVAALENVQQNGTYRVADFSSRGNPATAGDYIIQERDIEVSAPGASVESTWYTGGYNTISGTSMATPHVAGLAAKIWSANTSLSHSQLRTELQNRAKVYDIKGGIGAGTGDDYASGFGYPRVK	0.51
S173P, S175P, F180Y, L184F: TY145 protease (SEQ ID NO 3) variant with these substitutions (protein, listed as Bacillus sp.) AVPSTQTPWGIKSIYNDQSITKTTGGSGIKVAVLDTGVYTSHLDLAGSAEQCKDFTQSNPLVDGSCTDRQGHGTHVAGTVLAHGGSNGQGVYGVAPQAKLWAYKVLGDNGSGYSDDIAAAIRHVADEASRTGSKVVINMSLGSSAKDSLIASAVDYAYGKGVLIVAAAGNSGPGPNTIGYPGGFVNAVAVAALENVQQNGTYRVADFSSRGNPATAGDYIIQERDIEVSAPGASVESTWYTGGYNTISGTSMATPHVAGLAAKIWSANTSLSHSQLRTELQNRAKVYDIKGGIGAGTGDDYASGFGYPRVK	0.31 and 0.27
S27K, S171N, S173P, G174R, S175P, F180Y, L184F, Q198E, T297P: TY145 protease (SEQ ID NO 3) variant with these substitutions (protein, listed as Bacillus sp.) AVPSTQTPWGIKSIYNDQSITKTTGGKGIKVAVLDTGVYTSHLDLAGSAEQCKDFTQSNPLVDGSCTDRQGHGTHVAGTVLAHGGSNGQGVYGVAPQAKLWAYKVLGDNGSGYSDDIAAAIRHVADEASRTGSKVVINMSLGSSAKDSLIASAVDYAYGKGVLIVAAAGNNGPRPNTIGYPGGFVNAVAVAALENVQENGTYRVADFSSRGNPATAGDYIIQERDIEVSAPGASVESTWYTGGYNTISGTSMATPHVAGLAAKIWSANTSLSHSQLRTELQNRAKVYDIKGGIGAGPGDDYASGFGYPRVK	0.18
S27K, I121V, S171N, S173P, G174R, S175P, F180Y, L184F, Q198E, T297P: TY145 protease (SEQ ID NO 3) variant with these substitutions (protein, listed as Bacillus sp.) AVPSTQTPWGIKSIYNDQSITKTTGGKGIKVAVLDTGVYTSHLDLAGSAEQCKDFTQSNPLVDGSCTDRQGHGTHVAGTVLAHGGSNGQGVYGVAPQAKLWAYKVLGDNGSGYSDDIAAAVRHVADEASRTGSKVVINMSLGSSAKDSLIASAVDYAYGKGVLIVAAAGNNGPRPNTIGYPGGFVNAVAVAALENVQENGTYRVADFSSRGNPATAGDYIIQERDIEVSAPGASVESTWYTGGYNTISGTSMATPHVAGLAAKIWSANTSLSHSQLRTELQNRAKVYDIKGGIGAGPGDDYASGFGYPRVK	0.30
S27K, Q70N, G107N, I121V, E127Q, S173P, S175P, F180Y, L184F, Q198E, T297P: TY145 protease (SEQ ID NO 3) variant with these substitutions (protein, listed as Bacillus sp.) AVPSTQTPWGIKSIYNDQSITKTTGGKGIKVAVLDTGVYTSHLDLAGSAEQCKDFTQSNPLVDGSCTDRNGHGTHVAGTVLAHGGSNGQGVYGVAPQAKLWAYKVLNDNGSGYSDDIAAAVRHVADQASRTGSKVVINMSLGSSAKDSLIASAVDYAYGKGVLIVAAAGNSGPGPNTIGYPGGFVNAVAVAALENVQENGTYRVADFSSRGNPATAGDYIIQERDIEVSAPGASVESTWYTGGYNTISGTSMATPHVAGLAAKIWSANTSLSHSQLRTELQNRAKVYDIKGGIGAGPGDDYASGFGYPRVK	0.37
